Assays:
[1] = tested on: Nc1ccn([C@@H]2O[C@H](COP(=O)(O)OP(=O)(O)CCCNO)[C@@H](O)[C@H]2O)c(=O)n1; assay: steady-state kinetics; type: biochemical, Streptomyces rubellomurinus
[2] = tested on: NCCCP(=O)(O)OP(=O)(O)OC[C@H]1O[C@@H](n2ccc(N)nc2=O)[C@H](O)[C@@H]1O; assay: steady-state kinetics; type: biochemical, Streptomyces rubellomurinus

Q: Which Km [1] does the source give for FrbF (Streptomyces rubellomurinus) here?
A: The Km was 52.3 ± 3.0 µM.

Q: What about the kcat [1] of the same substance?
A: The kcat was 0.034 ± 0.00717 s⁻¹.

Q: What about the kcat/Km [1] of the same substance?
A: The kcat/Km was 650 M⁻¹ s⁻¹.

Q: What about the Km [2] of the same substance?
A: The Km was 35.2 ± 3.2 µM.

Q: What about the kcat [2] of the same substance?
A: Its kcat is 0.0577 ± 0.00267 s⁻¹.

Q: What about the kcat/Km [2] of the same substance?
A: The kcat/Km was 1630 M⁻¹ s⁻¹.

From paper PMC2819980
